Results taken from publication PMC2095792 (Nucleic Acids Research, 2007).

Target: the molecule itself
Experiment: pull-down

B1: Pop1p (natural protein)
chain: MSGSLSRGNGGKKVLNKNQLLKRNRIRNARSIRAEAVAASSTKTGTPSDLSESGSKLNVDQFISSRQFEVKQLQLAMHNSKAASSTRIFQALPRKLRRRTASHNVRRIPKRMRNRALREMRKSDQQDVLKGSSASSRKAHGLNAKQLYKARMSIKLLRLASKSTSMKLSMPPEVTSSNCHVRQKIKTLKRMIKESSTANPNIKLLNNRMGSYDCTGVNELAPIPKGRVKYTKRQKHFAWLPTHIWNAKRSHMMKRWGYQMVWAPTQKCFKLTHRLGGDTCSSDGALCMDSSYIGTIIVKDKSNDSEGDFLKSIIGKLTAERANLRKYREGQVLFQGLIYSFNEENGEDSTKPLGPCDVFWVQKDTAIIRLHPSIYTQVFNILLQHKEKLTVQDCRYSLASVTLKGAKALESLASCLRSTEYSKSFEQFKMVSMITDHNALPQRCTFAFEAIDPRHLAAPKKLNDSQRKTVNSDDILSLHENYPQDEINAVFNELCDPESRTQSYNNQNTLKEISARRYKLLTATPNSINKTTVPFKESDDPSIPLVIIRRLKTRDWIVVLPWFWLLPLWHLLNRIPRMYHIGLRQFQQIQYENKQLYFPDDYPFTQLGYIENSFYKKEASKTKWDRKPMGKRINFEKIKDIHNTKLPAYSGEIGDFFSSDWRFLQILRNGIDYLQRNDKTLELMDSKKTGQFNAQGVRDINCVNDVLEFCKDYEAKTKAMSLSIEENIPVALCKNRKCQFRTPDSISVNSSSFSLTFFPRCIIAVSCTLLERGHPKDNARIYQVPEKDLEHWLQLAKGVYRPNGRKDHDLKIPLPEVHDLIGFITSGTYHLNCGNGMGIGFIDHHAAIRQPTRYVLIRNVGTNTYRLGEWSKISV
modifications: 32P-phosphate on the RRASV site (bovine heart kinase), in the untagged radiolabelled form only
B1: binds.

B2: Pop4p (natural protein)
chain: MDRTQTFIKDCLFTKCLEDPEKPFNENRFQDTLLLLPTDGGLTSRLQRQQRKSKLNLDNLQKVSQLESADKQLEKRDYQRINKNSKIALREYINNCKKNTKKCLKLAYENKITDKEDLLHYIEEKHPTIYESLPQYVDFVPMYKELWINYIKELLNITKNLKTFNGSLALLKLSMADYNGALLRVTKSKNKTLIGLQGIVIWDSQKFFIMIVKGNIIDEIKCIPKKGTVFQFEIPISDDDDSALRYSILGDRFKYRSVDRAGRKFKSRRCDDMLYYIQN
modifications: 32P-phosphate on the RRASV site (bovine heart kinase), in the untagged radiolabelled form only
B2: binds.

B3: Rpp1p (natural protein)
chain: MLVDLNVPWPQNSYADKVTSQAVNNLIKTLSTLHMLGYTHIAINFTVNHSEKFPNDVKLLNPIDIKRRFGELMDRTGLKLYSRITLIIDDPSKGQSLSKISQAFDIVAALPISEKGLTLSTTNLDIDLLTFQYGSRLPTFLKHKSICSCVNRGVKLEIVYGYALRDVQARRQFVSNVRSVIRSSRSRGIVIGSGAMSPLECRNILGVTSLIKNLGLPSDRCSKAMGDLASLVLLNGRLRNKSHKQTIVTGGGSGNGDDVVNDVQGIDDVQTIKVVKRSMDAEQLGHASKRHKP
modifications: 32P-phosphate on the RRASV site (bovine heart kinase), in the untagged radiolabelled form only
B3: binds.

B4: Pop3p (natural protein)
chain: MSGSLKSLDKKIAKRRQVYKPVLDNPFTNEAHMWPRVHDQPLIWQLLQSSIINKLIHIQSKENYPWELYTDFNEIVQYLSGAHGNSDPVCLFVCNKDPDVPLVLLQQIPLLCYMAPMTVKLVQLPKSAMDTFKSVSKYGMLLLRCDDRVDKKFVSQIQKNVDLLQFPWLNAIKYRPTSVKLLKTTVPIVSKKRQK
modifications: 32P-phosphate on the RRASV site (bovine heart kinase), in the untagged radiolabelled form only
B4: binds.
